Experimental data as given in patent US12411143B2, “CD146 and uses thereof as a biomarker and as a therapeutic target in the diagnosis and treatment of fibrosis” (ASSISTANCE PUBLIQUE HÔPITAUX DE MARSEILLE, priority 2018, dated 2025).

Experiments:
ECFC [1] = experiment: mRNA expression of sCD146 isoforms in ECFC (qPCR); type: cell-based, human; conditions: for expression of short CD146, long CD146, I5-13-sCD146 and I10-sCD146 at the mRNA level: endothelial cells treated with recombinant proteins
Method: C: The mRNA expression of I10-sCD146 and I5-13-sCD146 isoforms was analyzed by qPCR in ECFC after treatment of the cells for 24 h with the recombinant shed soluble CD146 50 ng/ml, VEGF 20 ng/ml, TNF 20 ng/ml, TGF beta 5 ng/ml, and netrin 50 ng/ml. Cells were also treated for 15 min with WNT5a 200 ng/ml and 1 h with WNT3a 50 ng/ml. Results are the mean values +/−SEM of 3 experiments. *: P<0.05, experimental vs Control.
Total cellular RNA was isolated from cells, reverse transcribed into cDNA and the resulting cDNA was subjected to qPCR.

ECFC [2] = experiment: ECFC proliferation assay; type: cell-based, human; conditions: recombinant proteins 50 ng/ml, in the presence of GM6001 10 μM
Method: A: Effect of siRNA targeting I10-sCD146 and I5-13-sCD146 on proliferation of ECFC. Experiments were performed in the presence of GM6001 10 μM. Results are mean values of 4 different experiments and representative pictures of the cells in one experiment are given.
B: Effect of over-expression of I10-sCD146 (p-I10-sCD146), I5-13-sCD146 (p-I5-13-sCD146) and shed sCD146 (p-shed sCD146) realized by plasmid transfection on proliferation of ECFC. Experiments were performed in the presence of GM6001 10 μM.
C: Effect of recombinant proteins I10-sCD146, I5-13-sCD146 and shed sCD146 50 ng/ml on the proliferation of ECFC. Experiments were performed in the presence of GM6001 10 μM. Results are mean values of 4 different experiments.
Experiments were performed as previously described (Stalin et al., 2013).

ECFC [3] = experiment: Endothelial cell tube formation in spheroids; type: cell-based, human; conditions: recombinant proteins 50 ng/ml
Method: E: Effect of recombinant proteins I10-sCD146, I5-13-sCD146 and shed sCD146 50 ng/ml on the number of sprouts, branched points and cumulative sprout length in spheroid experiments realized with ECFC. Results were compared to VEGF 20 ng/ml and complete EGM2-MV medium.
Formation of spheroid experiments was performed as previously described (Korff T. et al., 2001).

[4] = test system: mouse ischemic hind limb model; experiment: Mouse hind limb ischemia model; type: in vivo; conditions: for blood flow (laser-Doppler): 2 μg locally twice a week for 28 days; for blood flow (laser-Doppler) / vascularisation of muscle (isolectin B4 labelling): compared to PBS; for vascularisation of muscle (isolectin B4 labelling): 28 days after surgery; for number of vessels in the legs (angiography pictures) / vessel density in calf, thigh and whole leg (angiography quantification): D28, compared to PBS
Method: A: Ischemic mice were treated with PBS or 2 μg of rh-sCD146/rh-I10-sCD146/rh-I5-13-sCD146 or VEGF. Blood perfusion rate was monitored by laser-Doppler. Results are mean values of 6 different animals in each group and expressed as % of the control leg. *, **, ***: P<0.05, P<0.01, P<0.001, I10-sCD146 vs. PBS; $$, $$$: P<0.01, P<0.001, I5-13-sCD146 vs. PBS; ##, ###: P<0.01, P<0.001, shed sCD146 vs. PBS; £: P<0.05, VEGF vs. PBS.
B: Blood vessels examination in hind limb muscle sections from control (PBS) and shed rh-sCD146/rh-I10-sCD146/rh-I5-13-sCD146 treated animals 28 days after surgery. Vessels are labelled with isolectin B4.**, ***: P<0.01, P<0.001, experimental vs control. $: P<0.05, I10-sCD146 vs I5-13-sCD146.
C: Angiographic pictures of control (PBS) and shed sCD146/I10-sCD146/I5-13-sCD146 treated animals at D28. Pictures are representative of the 6 animals in each group. Average of the density of the vessels was expressed as right versus left leg in the different parts of the legs (calf, thigh) and in the whole leg. *, **: P<0.01, P<0.001 experimental vs PBS in calf; $: P<0.05, experimental vs PBS in thigh; #, ##: P<0.05, P<0.01, experimental vs PBS in whole leg.
In sections of muscles from ischemic mice, vascularisation was visualized with isolectin B4 (Lifetechnologies) ( 1/100). Tissue sections were examined by fluorescence microscopy (Leica sp5, Leica, Nanterre, France).
Female mice were subjected to unilateral hind limb ischemia by complete resection of the entire left femoral artery. After surgery, animals were split in four treatment groups: one control group injected in ischemic adductor muscles twice a week with PBS for 28 days; three experimental groups treated as the control groups with the three different recombinant human soluble CD146 (rh-sCD146, rh-I5-13-sCD146, rh-I10-sCD146) 2 μg.
The ratio of the ischemic versus normal hind limb blood flow was measured using a laser doppler blood flow analyzer. At different time points post-surgery (days 1, 3, 7, 14, 21 and 28), animals were subjected to 3 consecutive laser scannings over the regions of interest (leg and feet). Blood flow was expressed as the ischemic versus normal hind limb ratio.
The animals were deeply anesthetised with mix of Ketamine Xylasine (100 mg/kg and 10 mg/kg respectively) and perfused intracardially with 2 ml of lipiodole. CT 3D images were obtained with a microPET/microCT rodent model scanner (nanoPET/CTO, Mediso) with features below: 70 kVp energy, exposure time of 300 ms and 720 projections and were quantified.

[5] = test system: CD146 KO mouse model of Systemic Sclerosis; experiment: CD146 KO mouse model of Systemic Sclerosis induced by bleomycin; type: in vivo; conditions: bleomycin-treated animals, subcutaneous injection
Method: C: Dermal thickness was evaluated in a CD146 KO mouse model of Systemic Sclerosis induced by subcutaneous injection of bleomycin. The effect of shed sCD146, I5-13-sCD146 and I10-sCD146 was estimated and the average of 4-5 different animals was given. Representative pictures are also shown.
D: The aspect of the skin is shown in the different CD146 KO mice treated with bleomycin and injected or not with shed sCD146, I10-sCD146 and I5-13-sCD146.
E: Blood vessels examination in skin of animals treated or not with shed sCD146/I10-sCD146/I5-13-sCD146. Vessels are labelled with isolectin B4. Results are representative of 3 different experiments in the 4-5 animals.
Male CD146 KO mice (11-16 weeks) were treated with subcutaneous bleomycin and were compared with littermates WT mice as previously described (Kaspi et al., 2017).
Mice skin sections were fixed in 4% formalin and embedded into paraffin. Dermal thickness was quantified using a stereological method using a Merz grid as previously described (Kaspi et al., 2017).

## sCD146: recombinant human soluble form of CD146 corresponding to the shed sCD146, obtained from Biocytex
ECFC [1]; ECFC, 24 h treatment (WNT5a 15 min, WNT3a 1 h)
  I5-13-sCD146 mRNA level: not modified
ECFC [2]
  endothelial cells proliferation: increased endothelial cells proliferation
ECFC [3]
  pseudo-capillary generation (number of sprouts, cumulative sprout length): increased the ability to generate pseudo-capillaries
[4]
  blood flow (laser-Doppler): able to increase blood flow
  vascularisation of muscle (isolectin B4 labelling): vascularisation was increased
  number of vessels in the legs (angiography pictures): increase in the number of vessels
  vessel density in calf, thigh and whole leg (angiography quantification): significantly increased
[5]
  dermal thickness: reduced this dermal thickness to the value observed in control animals
  vascularisation of the skin at macroscopic level: increased vascularisation
  vessel density in skin (isolectin-b4 labelling): significantly reversed

B1: rh-I10-sCD146: recombinant spliced variant of soluble CD146 containing intron 10, SEQ ID NO: 9 (protein, listed as Homo sapiens)
chain: MGLPRLVCAFLLAACCCCPRVAGVPGEAEQPAPELVEVEVGSTALLKCGLSQSQGNLSHVDWFSVHKEKRTLIFRVRQGQGQSEPGEYEQRLSLQDRGATLALTQVTPQDERIFLCQGKRPRSQEYRIQLRVYKAPEEPNIQVNPLGIPVNSKEPEEVATCVGRNGYPIPQVIWYKNGRPLKEEKNRVHIQSSQTVESSGLYTLQSILKAQLVKEDKDAQFYCELNYRLPSGNHMKESREVTVPVFYPTEKVWLEVEPVGMLKEGDRVEIRCLADGNPPPHFSISKQNPSTREAEEETTNDNGVLVLEPARKEHSGRYECQGLDLDTMISLLSEPQELLVNYVSDVRVSPAAPERQEGSSLTLTCEAESSQDLEFQWLREETGQVLERGPVLQLHDLKREAGGGYRCVASVPSIPGLNRTQLVNVAIFGEALPLGRDQVTPSGVVFKLFDKKPPAALGSSGAEGEAG
ECFC [1]
  expression of short CD146, long CD146, I5-13-sCD146 and I10-sCD146 at the mRNA level: did not modify the expression
ECFC [2]
  endothelial cells proliferation: increased endothelial cells proliferation
ECFC [3]
  pseudo-capillary generation (number of sprouts, cumulative sprout length): increased the ability to generate pseudo-capillaries
[4]; 2 μg locally twice a week
  time after first injection at which a significant effect on blood flow was observed: 3 days
[4]
  blood flow (laser-Doppler): able to increase blood flow
  vascularisation of muscle (isolectin B4 labelling): vascularisation was increased
  number of vessels in the legs (angiography pictures): increase in the number of vessels
  vessel density in calf, thigh and whole leg (angiography quantification): significantly increased
[5]
  dermal thickness: reduced this dermal thickness to the value observed in control animals
  vascularisation of the skin at macroscopic level: increased vascularisation
  vessel density in skin (isolectin-b4 labelling): significantly reversed

B2: rh-I5-13-sCD146: recombinant spliced variant of soluble CD146 containing introns 5 and 13, SEQ ID NO: 8 (protein, listed as Homo sapiens)
chain: MVYIVRQFLLYNVSGSVYLDQLIVLLTAKFSILRIAGSRVHHSPFSGHLDGCSFLSLQHSLHTSLDMSRHENVFLGLTLSSKSAGLKGFQLAFVPGLLQGTGGYLDGPLPTPVDNPRVGLEVGLRLSLPPLPPCPGVHIQSSQTVESSGLYTLQSILKAQLVKEDKDAQFYCELNYRLPSGNHMKESREVTVPVFYPTEKVWLEVEPVGMLKEGDRVEIRCLADGNPPPHFSISKQNPSTREAEEETTNDNGVLVLEPARKEHSGRYECQGLDLDTMISLLSEPQELLVNYVSDVRVSPAAPERQEGSSLTLTCEAESSQDLEFQWLREETGQVLERGPVLQLHDLKREAGGGYRCVASVPSIPGLNRTQLVNVAIFGPPWMAFKERKVWVKENMVLNLSCEASGHPRPTISWNVNGTASEQDQDPQRVLSTLNVLVTPELLETGVECTASNDLGKNTSILFLELVNLTTLTPDSNTTTGLSTSTASPHTRANSTSTGKPGLAREQGCARASFLPCPSPESPVQKGE
ECFC [1]
  expression of short CD146, long CD146, I5-13-sCD146 and I10-sCD146 at the mRNA level: did not modify the expression
ECFC [2]
  endothelial cells proliferation: increased endothelial cells proliferation
ECFC [3]
  pseudo-capillary generation (number of sprouts, cumulative sprout length): increased the ability to generate pseudo-capillaries
[4]
  blood flow (laser-Doppler): able to increase blood flow
  vascularisation of muscle (isolectin B4 labelling): vascularisation was increased
  number of vessels in the legs (angiography pictures): increase in the number of vessels
  vessel density in calf, thigh and whole leg (angiography quantification): significantly increased
[5]
  dermal thickness: no significant effect
  vascularisation of the skin at macroscopic level: did not
  vessel density in skin (isolectin-b4 labelling): no effect
